Test results taken from article doi:10.1101/2022.03.07.483330 (bioRxiv, 2022).

Assays:
[1] = molecular target: human wild-type DLL4 (N-EGF5, residues 27-400) (human, UniProt Q9NR61 27-400); assay: SPR
[2] = molecular target: DLL4.v2 (N-EGF5) (human, UniProt Q9NR61 27-400, N257P | T271L | F280Y | S301R | Q305P); assay: SPR
Sequence of DLL4.v2 (N-EGF5) (Q9NR61 27-400 N257P/T271L/F280Y/S301R/Q305P): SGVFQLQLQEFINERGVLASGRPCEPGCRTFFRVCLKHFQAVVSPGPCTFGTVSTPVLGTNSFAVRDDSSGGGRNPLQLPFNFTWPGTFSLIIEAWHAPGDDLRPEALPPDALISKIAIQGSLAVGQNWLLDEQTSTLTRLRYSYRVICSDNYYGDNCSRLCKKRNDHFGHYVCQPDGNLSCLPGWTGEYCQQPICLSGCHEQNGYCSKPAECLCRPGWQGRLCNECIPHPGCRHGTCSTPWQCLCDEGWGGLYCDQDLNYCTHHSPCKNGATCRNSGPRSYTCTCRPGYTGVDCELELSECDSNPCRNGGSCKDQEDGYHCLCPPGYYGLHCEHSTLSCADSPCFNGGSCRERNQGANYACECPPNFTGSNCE

Sequence of human wild-type DLL4 (N-EGF5, residues 27-400) (Q9NR61 27-400): as the sequence (Q9NR61 27-400 N257P/T271L/F280Y/S301R/Q305P) above, with P231N, L245T, Y254F, R275S, P279Q counted along it

B1: human Notch2 (EGF6-13, residues 221-530), biotinylated (domain or fragment, UniProt Q04721 221-530, looked up)
chain: LYVPCAPSPCVNGGTCRQTGDFTFECNCLPGFEGSTCERNIDDCPNHRCQNGGVCVDGVNTYNCRCPPQWTGQFCTEDVDECLLQPNACQNGGTCANRNGGYGCVCVNGWSGDDCSENIDDCAFASCTPGSTCIDRVASFSCMCPEGKAGLLCHLDDACISNPCHKGALCDTNPLNGQYICTCPQGYKGADCTEDVDECAMANSNPCEHAGKCVNTDGAFHCECLKGYAGPRCEMDINECHSDPCQNDATCLDKIGGFTCLCMPGFKGVHCELEINECQSNPCVNNGQCVDKVNRFQCLCPPGFTGPVCQ
modifications: biotin on the C-terminal BAP-tag (BirA)
- binding result [1]: binds
- binding result [2]: binds

B2: human Notch3 (EGF5-12, residues 197-505), biotinylated (domain or fragment, UniProt Q9UM47 197-505, looked up)
chain: PAVPCAPSPCRNGGTCRQSGDLTYDCACLPGFEGQNCEVNVDDCPGHRCLNGGTCVDGVNTYNCQCPPEWTGQFCTEDVDECQLQPNACHNGGTCFNTLGGHSCVCVNGWTGESCSQNIDDCATAVCFHGATCHDRVASFYCACPMGKTGLLCHLDDACVSNPCHEDAICDTNPVNGRAICTCPPGFTGGACDQDVDECSIGANPCEHLGRCVNTQGSFLCQCGRGYTGPRCETDVNECLSGPCRNQATCLDRIGQFTCICMAGFTGTYCEVDIDECQSSPCVNGGVCKDRVNGFSCTCPSGFSGSTCQ
modifications: biotin on the C-terminal BAP-tag (BirA)
- binding result [1]: binds
- binding result [2]: binds

B3: human Notch4 (EGF7-12, residues 276-511), biotinylated (domain or fragment, UniProt Q99466 276-511, looked up)
chain: NPDNCVSHQCQNGGTCQDGLDTYTCLCPETWTGWDCSEDVDECETQGPPHCRNGGTCQNSAGSFHCVCVSGWGGTSCEENLDDCIAATCAPGSTCIDRVGSFSCLCPPGRTGLLCHLEDMCLSQPCHGDAQCSTNPLTGSTLCLCQPGYSGPTCHQDLDECLMAQQGPSPCEHGGSCLNTPGSFNCLCPPGYTGSRCEADHNECLSQPCHPGSTCLDLLATFHCLCPPGLEGQLCE
modifications: biotin on the C-terminal BAP-tag (BirA)
- binding result [1]: binds
- binding result [2]: binds

B4: mouse Notch1 (EGF6-13, residues 221-526), biotinylated (domain or fragment, UniProt Q01705 221-526, looked up)
chain: PCSPSPCQNGGTCRPTGDTTHECACLPGFAGQNCEENVDDCPGNNCKNGGACVDGVNTYNCRCPPEWTGQYCTEDVDECQLMPNACQNGGTCHNTHGGYNCVCVNGWTGEDCSENIDDCASAACFQGATCHDRVASFYCECPHGRTGLLCHLNDACISNPCNEGSNCDTNPVNGKAICTCPSGYTGPACSQDVDECALGANPCEHAGKCLNTLGSFECQCLQGYTGPRCEIDVNECISNPCQNDATCLDQIGEFQCICMPGYEGVYCEINTDECASSPCLHNGHCMDKINEFQCQCPKGFNGHLCQ
modifications: biotin on the C-terminal BAP-tag (BirA)
- binding result [1]: binds
- binding result [2]: binds
